In US9260500B2, “Peptide and use thereof” (Takeda Pharmaceutical Company Limited, priority 2009, dated 2016):
Non-standard residues stand in square brackets, D forms with d. No end group written: not given here. *: point of attachment. 4‑Guanidinomethylbenzoyl = N=C(N)NCc1ccc(C(=O)*)cc1; Cyclohexanecarbonyl = O=C(C1CCCCC1)*; Dap(CONH2) = NC(=O)NC[C@H](N)C(=O)O; 4Pal = N[C@@H](Cc1ccncc1)C(=O)O; Cha = N[C@@H](CC1CCCCC1)C(=O)O; Aipe = 3-aminobutanoic acid; Isobutyryl = CC(C)C(=O)*; Iva = CC[C@](C)(N)C(=O)O; Nle = CCCC[C@H](N)C(=O)O; Nar = not defined here; Aib = CC(C)(N)C(=O)O; Inp = O=C(O)C1CCNCC1; βAla = NCCC(=O)O; Sar = CNCC(=O)O

What was measured:
human Y2 receptor [1] = target: T1, human Y2 receptor (Homo sapiens, UniProt P49146); assay: Receptor Binding Assay (RBA) for Human Y2, [125I]-PYY displacement on hY2R/CHO membrane fraction; settings: IC50 of test compound/IC50 of PYY(3-36) (PYY(3-36) taken as 1)
T1 construct: expressed in transfected cells; membrane fraction
T1 sequence (P49146 1-381): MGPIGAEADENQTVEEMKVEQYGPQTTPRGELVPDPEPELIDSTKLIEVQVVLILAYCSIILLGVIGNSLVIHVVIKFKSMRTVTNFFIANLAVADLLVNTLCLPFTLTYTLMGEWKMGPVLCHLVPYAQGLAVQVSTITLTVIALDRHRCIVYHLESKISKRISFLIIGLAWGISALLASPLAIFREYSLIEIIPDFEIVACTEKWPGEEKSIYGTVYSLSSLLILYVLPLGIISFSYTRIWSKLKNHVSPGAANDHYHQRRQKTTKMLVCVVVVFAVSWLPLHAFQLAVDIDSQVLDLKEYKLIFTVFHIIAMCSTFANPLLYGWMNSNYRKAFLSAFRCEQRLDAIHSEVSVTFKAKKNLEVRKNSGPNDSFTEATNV
Outline: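 Read-out is [125I]-PYY displacement from membranes of CHO/dhfr− cells stably transfected with human Y2R. Membranes were obtained by disrupting cells in a buffer of 10 mM NaHCO3, 5 mM EDTA and protease inhibitors.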

human Y2 receptor [2] = target: T1, human Y2 receptor; assay: Human Y2 Receptor G Protein Binding Assay (GBA), [35S]GTPγS; assay type: biochemical; settings: EC50 of test compound/EC50 of PYY(3-36) (PYY3-36 taken as 1), hY2R/CHO membrane fraction
Outline: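 Agonism measured as [35S]GTPγS binding, read by GF/C filtration and scintillation counting after 120 min at room temperature, using human Y2 membranes at 1 μg protein/mL in pH 7.4 Tris/MgCl2/NaCl/GDP buffer. Compound serially diluted 100 μM–1 nM; EC50 normalized to PYY(3-36) (ratio = compound/PYY).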

Substance | RBA IC50 Ratio (human Y2 receptor [1]) | GBA EC50 Ratio (human Y2 receptor [2])
Ac-[D-Hyp24, Pya(4)26, Cha27,36, Aib28,31, Lys30]-PYY(23-36) [compound No. 207] | 1.1 | 0.86
Ac-[Aipe24, Pya(4)26, Cha27,36, Aib28,31, Lys30]-PYY(23-36) (Ac-S[Aipe]R[4Pal][Cha][Aib]NK[Aib]TRQR[Cha]-NH2) [compound No. 243] | 1.3 | 2
Ac-[D-Pro24, Pya(4)26, Cha27,36, Aib28,31, Orn30]-PYY(23-36) [compound No. 206] | 1.5 | 0.83
Isobutanoyl-[D-Pro24, Pya(4)26, Cha27,36, Aib28,31, Lys30]-PYY(23-36) (Isobutyryl-S[dP]R[4Pal][Cha][Aib]NK[Aib]TRQR[Cha]-NH2; SMILES CC(C)C(=O)N[C@@H](CO)C(=O)N1CCC[C@@H]1C(=O)N[C@@H](CCCNC(=N)N)C(=O)N[C@@H](Cc1ccncc1)C(=O)N[C@@H](CC1CCCCC1)C(=O)NC(C)(C)C(=O)N[C@@H](CC(N)=O)C(=O)N[C@@H](CCCCN)C(=O)NC(C)(C)C(=O)N[C@H](C(=O)N[C@@H](CCCNC(=N)N)C(=O)N[C@@H](CCC(N)=O)C(=O)N[C@@H](CCCNC(=N)N)C(=O)N[C@@H](CC1CCCCC1)C(N)=O)[C@@H](C)O) [compound No. 212] | 0.79 | 0.89
Ac-[D-Pro24, Nar25, Pya(4)26, Cha27,36, Aib28,31, Lys30]-PYY(23-36) (Ac-S[dP][Nar][4Pal][Cha][Aib]NK[Aib]TRQR[Cha]-NH2; reading uncertain) [compound No. 290] | 1.1 | 1.8
Ac-[D-Pro24, Har25, Pya(4)26, Cha27,36, Aib28,31, Lys30]-PYY(23-36) [compound No. 289] | 0.82 | 1.4
Ac-[Thr23, D-Pro24, Pya(4)26, Cha27,36, Aib28,31, Lys30]-PYY(23-36) (Ac-T[dP]R[4Pal][Cha][Aib]NK[Aib]TRQR[Cha]-NH2; SMILES CC(=O)N[C@H](C(=O)N1CCC[C@@H]1C(=O)N[C@@H](CCCNC(=N)N)C(=O)N[C@@H](Cc1ccncc1)C(=O)N[C@@H](CC1CCCCC1)C(=O)NC(C)(C)C(=O)N[C@@H](CC(N)=O)C(=O)N[C@@H](CCCCN)C(=O)NC(C)(C)C(=O)N[C@H](C(=O)N[C@@H](CCCNC(=N)N)C(=O)N[C@@H](CCC(N)=O)C(=O)N[C@@H](CCCNC(=N)N)C(=O)N[C@@H](CC1CCCCC1)C(N)=O)[C@@H](C)O)[C@@H](C)O) [compound No. 211] | 1.1 | 0.69
Ac-[D-Pro24, Aib26,28,31, Cha27,36, Lys30]-PYY(23-36) (Ac-S[dP]R[Aib][Cha][Aib]NK[Aib]TRQR[Cha]-NH2; SMILES CC(=O)N[C@@H](CO)C(=O)N1CCC[C@@H]1C(=O)N[C@@H](CCCNC(=N)N)C(=O)NC(C)(C)C(=O)N[C@@H](CC1CCCCC1)C(=O)NC(C)(C)C(=O)N[C@@H](CC(N)=O)C(=O)N[C@@H](CCCCN)C(=O)NC(C)(C)C(=O)N[C@H](C(=O)N[C@@H](CCCNC(=N)N)C(=O)N[C@@H](CCC(N)=O)C(=O)N[C@@H](CCCNC(=N)N)C(=O)N[C@@H](CC1CCCCC1)C(N)=O)[C@@H](C)O) [compound No. 235] | 2.1 | 2.7
N-4-Pyridiniyl-[Pic(4)23, D-Pro24, Cha27,28,36, Aib31]-PYY(23-36) ([Inp][dP]RH[Cha][Cha]NL[Aib]TRQR[Cha]-NH2; not fully specified (N-terminus); printed as N-4-Pyridiniyl-[Pic(4)23, D-Pro24, Cha27,28,36, Aib31]-PYY(23-36)) [compound No. 125] | 4 | 3.4
Ac-[D-Ser23, Sar24, Cha27,28,36, Aib31]-PYY(23-36) (Ac-[dS][Sar]RH[Cha][Cha]NL[Aib]TRQR[Cha]-NH2; SMILES CC(=O)N[C@H](CO)C(=O)N(C)CC(=O)N[C@@H](CCCNC(=N)N)C(=O)N[C@@H](Cc1c[nH]cn1)C(=O)N[C@@H](CC1CCCCC1)C(=O)N[C@@H](CC1CCCCC1)C(=O)N[C@@H](CC(N)=O)C(=O)N[C@@H](CC(C)C)C(=O)NC(C)(C)C(=O)N[C@H](C(=O)N[C@@H](CCCNC(=N)N)C(=O)N[C@@H](CCC(N)=O)C(=O)N[C@@H](CCCNC(=N)N)C(=O)N[C@@H](CC1CCCCC1)C(N)=O)[C@@H](C)O) [compound No. 111] | 6.6 | 5.3
Ac-[Iva23, D-Pro24, Cha27,28,36, Aib31]-PYY(23-36) (Ac-[Iva][dP]RH[Cha][Cha]NL[Aib]TRQR[Cha]-NH2; SMILES CC[C@](C)(NC(C)=O)C(=O)N1CCC[C@@H]1C(=O)N[C@@H](CCCNC(=N)N)C(=O)N[C@@H](Cc1c[nH]cn1)C(=O)N[C@@H](CC1CCCCC1)C(=O)N[C@@H](CC1CCCCC1)C(=O)N[C@@H](CC(N)=O)C(=O)N[C@@H](CC(C)C)C(=O)NC(C)(C)C(=O)N[C@H](C(=O)N[C@@H](CCCNC(=N)N)C(=O)N[C@@H](CCC(N)=O)C(=O)N[C@@H](CCCNC(=N)N)C(=O)N[C@@H](CC1CCCCC1)C(N)=O)[C@@H](C)O) [compound No. 178] | 13 | 17
Ac-[βAla24, Pya(4)26, Cha27,36, Aib28,31, Lys30]-PYY(23-36) (Ac-S[βAla]R[4Pal][Cha][Aib]NK[Aib]TRQR[Cha]-NH2; SMILES CC(=O)N[C@@H](CO)C(=O)NCCC(=O)N[C@@H](CCCNC(=N)N)C(=O)N[C@@H](Cc1ccncc1)C(=O)N[C@@H](CC1CCCCC1)C(=O)NC(C)(C)C(=O)N[C@@H](CC(N)=O)C(=O)N[C@@H](CCCCN)C(=O)NC(C)(C)C(=O)N[C@H](C(=O)N[C@@H](CCCNC(=N)N)C(=O)N[C@@H](CCC(N)=O)C(=O)N[C@@H](CCCNC(=N)N)C(=O)N[C@@H](CC1CCCCC1)C(N)=O)[C@@H](C)O) [compound No. 222] | 1.9 | 1.1
4-Guanidinomethylbenzoyl-[Iva25, Cha27,36, Aib28,31, Lys30]-PYY(25-36) ({4‑Guanidinomethylbenzoyl}-[Iva]H[Cha][Aib]NK[Aib]TRQR[Cha]-NH2; SMILES CC[C@](C)(NC(=O)c1ccc(CNC(=N)N)cc1)C(=O)N[C@@H](Cc1c[nH]cn1)C(=O)N[C@@H](CC1CCCCC1)C(=O)NC(C)(C)C(=O)N[C@@H](CC(N)=O)C(=O)N[C@@H](CCCCN)C(=O)NC(C)(C)C(=O)N[C@H](C(=O)N[C@@H](CCCNC(=N)N)C(=O)N[C@@H](CCC(N)=O)C(=O)N[C@@H](CCCNC(=N)N)C(=O)N[C@@H](CC1CCCCC1)C(N)=O)[C@@H](C)O) [compound No. 252] | 6.3 | 2.8
Ac-[D-Pro24, Alb26, Cha27,28,36, Aib31]-PYY(23-36) (Ac-S[dP]R[Dap(CONH2)][Cha][Cha]NL[Aib]TRQR[Cha]-NH2; SMILES CC(=O)N[C@@H](CO)C(=O)N1CCC[C@@H]1C(=O)N[C@@H](CCCNC(=N)N)C(=O)N[C@@H](CNC(N)=O)C(=O)N[C@@H](CC1CCCCC1)C(=O)N[C@@H](CC1CCCCC1)C(=O)N[C@@H](CC(N)=O)C(=O)N[C@@H](CC(C)C)C(=O)NC(C)(C)C(=O)N[C@H](C(=O)N[C@@H](CCCNC(=N)N)C(=O)N[C@@H](CCC(N)=O)C(=O)N[C@@H](CCCNC(=N)N)C(=O)N[C@@H](CC1CCCCC1)C(N)=O)[C@@H](C)O) [compound No. 149] | 12 | 2.2
Ac-[D-Pro24, Iva26, Cha27,28,36, Aib31]-PYY(23-36) (Ac-S[dP]R[Iva][Cha][Cha]NL[Aib]TRQR[Cha]-NH2; SMILES CC[C@](C)(NC(=O)[C@H](CCCNC(=N)N)NC(=O)[C@H]1CCCN1C(=O)[C@H](CO)NC(C)=O)C(=O)N[C@@H](CC1CCCCC1)C(=O)N[C@@H](CC1CCCCC1)C(=O)N[C@@H](CC(N)=O)C(=O)N[C@@H](CC(C)C)C(=O)NC(C)(C)C(=O)N[C@H](C(=O)N[C@@H](CCCNC(=N)N)C(=O)N[C@@H](CCC(N)=O)C(=O)N[C@@H](CCCNC(=N)N)C(=O)N[C@@H](CC1CCCCC1)C(N)=O)[C@@H](C)O) [compound No. 176] | 5.2 | 4.2
Cyclohexanecarbonyl-[Nle26, Cha27,28,36, Aib31]-PYY(25-36) (Cyclohexanecarbonyl-R[Nle][Cha][Cha]NL[Aib]TRQR[Cha]-NH2; SMILES CCCC[C@H](NC(=O)[C@H](CCCNC(=N)N)NC(=O)C1CCCCC1)C(=O)N[C@@H](CC1CCCCC1)C(=O)N[C@@H](CC1CCCCC1)C(=O)N[C@@H](CC(N)=O)C(=O)N[C@@H](CC(C)C)C(=O)NC(C)(C)C(=O)N[C@H](C(=O)N[C@@H](CCCNC(=N)N)C(=O)N[C@@H](CCC(N)=O)C(=O)N[C@@H](CCCNC(=N)N)C(=O)N[C@@H](CC1CCCCC1)C(N)=O)[C@@H](C)O) [compound No. 77] | 50 | 33
